Assay results taken from patent US20080008707A1, “Denatured collagen peptides and uses thereof” (Cell-Matrix, Inc., priority 2006, published 2008).
Square brackets hold non-standard residues; d marks the D form. Ends that are not written are not given here. Hyp = O=C(O)[C@@H]1C[C@@H](O)CN1

B1: synthetic peptide No. 17, GPPGPPGP (SEQ ID NO: 31) (peptide)
peptide: GPXGPXGP
modifications: hydroxyproline at the P positions marked in Tables 13 and 14; marking lost in this text

Key:
[1] = biological target: HUI77, murine IgM anti-denatured-collagen monoclonal antibody; assay: competition ELISA on coated dn-collagen IV
[2] = biological target: D93, recombinant humanized IgG1 kappa antibody targeting denatured-collagen; assay: competition ELISA on coated human dn-collagen IV
Chain of D93, recombinant humanized IgG1 kappa antibody targeting denatured-collagen (heavy, as listed by the source, chain 1 of 2): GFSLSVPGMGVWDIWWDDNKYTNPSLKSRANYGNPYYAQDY
Chain of D93, recombinant humanized IgG1 kappa antibody targeting denatured-collagen (light, as listed by the source, chain 2 of 2): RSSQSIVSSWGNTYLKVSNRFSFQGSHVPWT

[3] = test system: D93 binding to human denatured-collagen IV; assay: Competition ELISA: synthetic peptides blocking D93 binding to heat denatured collagen IV; settings: average of two studies, vs 1% BSA/PBS alone
Experimental: (§1) The ELISA was conducted as follows: wells of a 96-well microtiter plate (Immulon, 4 HBX flat-bottomed, Thermo Electron Corporation, Waltham, Mass.) were coated with 100 μL/well of dn-collagen IV at 10 μg/mL in Phosphate Buffered Saline (PBS) overnight at 4° C. The plate was washed 3 times (3×) with PBS containing 0.05% (v/v) Tween-20 (PBST) using an automated plate washer.
(§2) The plate was blocked by adding 300 μL/well of 1% BSA (w/v) in PBS for 1 hour at 25° C. followed by washing 3× in PBST as above.
(§3) Solutions of D93 or HUI77 were prepared with various concentrations of peptide or antibody inhibitor and incubate for 15 minutes. D93 or HUI77 was prepared at 200 ng/mL in 1% BSA/PBS.
(§4) For antibody blocking studies using synthetic peptides: peptide inhibitor stock solutions were prepared at 2 mM, 0.2 mM, 0.02 mM, and 0.002 mM in 1% BSA/PBS. 500 μL of a 2 mM peptide solution in 1% BSA/PBS was prepared and diluted 1:10 in 500 μL a total of three times to make peptide inhibitor concentrations.
(§5) 200 μL of D93 or HUI77 at 200 ng/mL solution was combined with 200 μL of peptide or antibody inhibitor solution and incubated for 15 minutes at room temperature.
(§6) D93 or HUI77 with various concentrations of inhibitors (2 mM, 0.2 mM, 0.02 mM, and 0.002 mM) were added to microplate wells and incubated for 1 hour at 25° C. The plate was washed 3× in PBST as above.
(§7) To each microtiter plate well, 100 μL of diluted anti-human IgG or anti-mouse IgM conjugated to horseradish peroxidase (HRP) in PBST was added and incubated for one hour at 25° C.: (a) for D93: Goat anti-human IgG-HRP (Jackson ImmunoResearch, Catalog No. 109-035-088) was used at 1:20,000 and (b) for HUI77: Goat anti-mouse IgM-HRP was used at 1:4,000. Plates were washed 3× in PBST as above.
(§8) Tetramethylbenzidine (TMB) substrate (100 μL; Pierce Chemicals)) was added to wells and the plates were allowed to develop at room temperature for 15 minutes in the dark. Substrate development was stopped by adding 50 μL/well of 2N H2SO4. The microtiter […] plates were read at 450 nm within five minutes of adding the H2SO4. Reactivity was measured with a microplate reader (Molecular Devices, Sunnyvale, Calif.) at a wavelength of 450 nm and analyzed using SOFTMax® PRO4.0 (Molecular Devices). All samples were tested in triplicate.
(§9) Individual peptides with amino acid substitutions and deletions were also synthesized based on the primary and secondary peptide arrays. […] The inhibitory activity of the individual peptides was tested by ELISA as previously described to measure binding of D93 or HUI77 to denatured collagen where peptides and antibodies were prepared at a 2× concentration and pre-incubated for 15 minutes prior to adding to microtiter plates coated with dn-collagen.
(§10) 96-well plates were coated with 100 μL/well of denatured (dn) collagen IV at 10 μg/mL in phosphate buffered saline (PBS) overnight at 4° C. followed by washing the plates in an automated plate washer 3 times in PBS containing 0.05% (v/v) Tween-20 (PBST). Non-specific binding was prevented by blocking the wells by adding 300 μL/well of 1% bovine serum albumin (BSA) (w/v) in PBS for 1 hour (hr) at 25° C. The plates were washed as above.
(§11) Solutions of D93 and HUI77 antibodies were prepared with various concentrations of inhibitor and incubated for 15 minutes. Briefly, 20 mLs of D93 or HUI77 were prepared at 200 ng/mL in 1% BSA/PBS. Solutions of peptide inhibitors (2 mM, 0.2 mM, […]) were prepared in 1% BSA/PBS. Equal volumes of antibodies and peptide inhibitors were combined: 200 μL of D93 or HUI77 (200 ng/mL solution) with 200 μL of each peptide solution.
(§12) 100 μL/well of D93 or HUI77 at 100 ng/mL with various concentrations of inhibitors were added to the wells in triplicate and incubated for 1 hour at 25° C. The plates were washed as described above.
(§13) 100 μL/well of secondary horseradish peroxidase (HRP)-conjugated antibody in PBST was added to each well and incubated for 1 hour (hr) at 25° C. […]

[4] = test system: HUI77 binding to denatured collagen IV; assay: Competition ELISA: synthetic peptides blocking HUI77 binding to heat denatured collagen IV; design: species or system human; settings: average of two studies
Experimental: as §1, §2, §3, §4, §5, §6, §7, §8, §9, §10, §11, §12, §13

[5] = peptide inhibitor concentration 10 μM, listed as 2 (18), 10 µM
[6] = peptide inhibitor concentration 100 μM, listed as 2 (18), 100 µM
[7] = peptide inhibitor concentration 1000 μM, listed as 2 (18), 1000 µM
[8] = peptide inhibitor concentration 100 μM, listed as 18 (22), 100 µM
[9] = peptide inhibitor concentration 1000 μM, listed as 18 (22), 1000 µM

Row | Molecule | % inhibition of HUI77 binding to dn-collagen IV, peptide 10 µM [1] [%] | % inhibition of HUI77 binding to dn-collagen IV, peptide 100 µM [1] [%] | % inhibition of HUI77 binding to dn-collagen IV, peptide 1000 µM [1] [%] | % inhibition of D93 binding to dn-collagen IV, peptide 1 µM [2] [%] | % inhibition of D93 binding to dn-collagen IV, peptide 10 µM [2] [%] | % inhibition of D93 binding to dn-collagen IV, peptide 100 µM [2] [%] | % inhibition of D93 binding to dn-collagen IV, peptide 1000 µM [2] [%] | further results
1 | synthetic peptide No. 21, GPPG (SEQ ID NO: 34) | 6.5 | 9 | 14 | 9.5 | 6.5 | 11 | 52 | –
2 | LPGPPGPPGPY [SEQ ID NO: 18] | – | – | – | – | – | – | – | % INHIBITION OF BINDING OF D93 TO HUMAN DENATURED-COLLAGEN IV ([3]; peptide inhibitor concentration 1 μM, listed as 2 (18), 1 µM): 6%; % INHIBITION OF BINDING OF D93 TO HUMAN DENATURED-COLLAGEN IV [3, 5]: 2%; % INHIBITION OF BINDING OF D93 TO HUMAN DENATURED-COLLAGEN IV [3, 6]: 7%; % INHIBITION OF BINDING OF D93 TO HUMAN DENATURED-COLLAGEN IV [3, 7]: 46%; % INHIBITION OF BINDING OF HUI77 TO DENATURED COLLAGEN IV [4, 5]: 5.5%; % INHIBITION OF BINDING OF HUI77 TO DENATURED COLLAGEN IV [4, 6]: 6.5%; % INHIBITION OF BINDING OF HUI77 TO DENATURED COLLAGEN IV [4, 7]: 4.5%
3 | LPGPPGPPG [SEQ ID NO: 22] | – | – | – | – | – | – | – | % INHIBITION OF BINDING OF D93 TO HUMAN DENATURED-COLLAGEN IV ([3]; peptide inhibitor concentration 1 μM, listed as 18 (22), 1 µM): 6%; % INHIBITION OF BINDING OF D93 TO HUMAN DENATURED-COLLAGEN IV ([3]; peptide inhibitor concentration 10 μM, listed as 18 (22), 10 µM): 5%; % INHIBITION OF BINDING OF D93 TO HUMAN DENATURED-COLLAGEN IV [3, 8]: 3%; % INHIBITION OF BINDING OF D93 TO HUMAN DENATURED-COLLAGEN IV [3, 9]: 17.5%; % INHIBITION OF BINDING OF HUI77 TO DENATURED COLLAGEN IV [4, 8]: 9%; % INHIBITION OF BINDING OF HUI77 TO DENATURED COLLAGEN IV [4, 9]: 6%
4 | L[Hyp]GL[Hyp]G [synthetic peptide No. 14, LPGLPG (SEQ ID NO: 25)] | 6 | 9.5 | 17.5 | 8 | 6.5 | 6.5 | 46.5 | –
5 | LPGFPGC (also: hydroxyproline marking, if any, lost) [synthetic peptide No. 9, LPGFPGC (SEQ ID NO: 37)] | 7 | 7.5 | 8.5 | 8 | 3.5 | 1 | 6.5 | –
6 | B1 | 7.5 | 12 | 44 | 9.5 | 21 | 77 | 92.5 | –
7 | L[Hyp]GP[Hyp]G [synthetic peptide No. 16, LPGPPG (SEQ ID NO: 24)] | 3 | 8 | 64 | 6.5 | 12 | 52.5 | 90 | –
8 | L[Hyp]GS[Hyp]G [synthetic peptide No. 10, LPGSPG (SEQ ID NO: 26)] | 8 | 10.5 | 8.5 | 9.5 | 3.5 | 2.5 | 13.5 | –
9 | LPGPPGPPG (also: hydroxyproline at marked P positions, if any, marking lost) [synthetic peptide No. 18, … (SEQ ID NO: 22)] | 6.5 | 9 | 6 | 6 | 5 | 3 | 17.5 | –
10 | L[Hyp]GF[Hyp]G [synthetic peptide No. 19, LPGFPG (SEQ ID NO: 23)] | 7 | 14.5 | 75 | 10.5 | 6 | 8 | 32 | –
11 | PGP[Hyp]GP[Hyp]GP [synthetic peptide No. 1, … (SEQ ID NO: 29)] | 10.5 | 12.5 | 63 | 11.5 | 40.5 | 87.5 | 93.5 | –
12 | PGP[Hyp]GP[Hyp]GPY [synthetic peptide No. 4, … (SEQ ID NO: 28)] | 7 | 16 | 86.5 | 33.5 | 83 | 93.5 | 93.5 | –
13 | L[Hyp]GT[Hyp]G [synthetic peptide No. 8, LPGTPG (SEQ ID NO: 27)] | 3.5 | 4.5 | 6 | 7 | 2 | 4.5 | 24 | –
